The text below walks through data of publication PMC9867570 (Science (New York, N.Y.), 2022).

The target in one assay is T1, human NUP93^SOL (human, UniProt Q8N1F7 174-819).
T1 sequence: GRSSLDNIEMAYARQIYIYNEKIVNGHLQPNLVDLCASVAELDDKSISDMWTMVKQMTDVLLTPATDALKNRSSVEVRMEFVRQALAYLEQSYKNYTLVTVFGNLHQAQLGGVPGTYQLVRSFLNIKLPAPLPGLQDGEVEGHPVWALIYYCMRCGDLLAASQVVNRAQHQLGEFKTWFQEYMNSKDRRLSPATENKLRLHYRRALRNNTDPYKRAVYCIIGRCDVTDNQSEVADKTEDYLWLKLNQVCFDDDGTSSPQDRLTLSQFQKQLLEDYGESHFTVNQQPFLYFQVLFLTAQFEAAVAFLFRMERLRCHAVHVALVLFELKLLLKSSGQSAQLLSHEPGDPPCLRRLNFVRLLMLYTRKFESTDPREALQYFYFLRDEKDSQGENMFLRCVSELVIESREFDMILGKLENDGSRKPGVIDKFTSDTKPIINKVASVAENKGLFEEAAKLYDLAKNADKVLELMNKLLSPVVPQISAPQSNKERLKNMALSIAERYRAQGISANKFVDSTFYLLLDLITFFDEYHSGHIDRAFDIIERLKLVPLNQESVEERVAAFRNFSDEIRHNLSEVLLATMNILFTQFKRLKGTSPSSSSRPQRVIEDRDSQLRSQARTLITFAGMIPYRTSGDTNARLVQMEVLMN
The assay is described as follows: SEC. For orientation: Size exclusion chromatography separates by hydrodynamic size, large species first.

In assay [1] the target is Chaetomium thermophilum Nup188, full-length (Chaetomium thermophilum, UniProt G0SFH5 1-1858). The assay is described as follows: ITC.
Assay [2] addresses Chaetomium thermophilum Nup192, full-length (Chaetomium thermophilum, UniProt G0S4T0 1-1756). Kind of assay: ITC. Background: In ITC the heat of successive injections is recorded.

Chaetomium thermophilum Nup192, full-length, sequence (G0S4T0 whole entry): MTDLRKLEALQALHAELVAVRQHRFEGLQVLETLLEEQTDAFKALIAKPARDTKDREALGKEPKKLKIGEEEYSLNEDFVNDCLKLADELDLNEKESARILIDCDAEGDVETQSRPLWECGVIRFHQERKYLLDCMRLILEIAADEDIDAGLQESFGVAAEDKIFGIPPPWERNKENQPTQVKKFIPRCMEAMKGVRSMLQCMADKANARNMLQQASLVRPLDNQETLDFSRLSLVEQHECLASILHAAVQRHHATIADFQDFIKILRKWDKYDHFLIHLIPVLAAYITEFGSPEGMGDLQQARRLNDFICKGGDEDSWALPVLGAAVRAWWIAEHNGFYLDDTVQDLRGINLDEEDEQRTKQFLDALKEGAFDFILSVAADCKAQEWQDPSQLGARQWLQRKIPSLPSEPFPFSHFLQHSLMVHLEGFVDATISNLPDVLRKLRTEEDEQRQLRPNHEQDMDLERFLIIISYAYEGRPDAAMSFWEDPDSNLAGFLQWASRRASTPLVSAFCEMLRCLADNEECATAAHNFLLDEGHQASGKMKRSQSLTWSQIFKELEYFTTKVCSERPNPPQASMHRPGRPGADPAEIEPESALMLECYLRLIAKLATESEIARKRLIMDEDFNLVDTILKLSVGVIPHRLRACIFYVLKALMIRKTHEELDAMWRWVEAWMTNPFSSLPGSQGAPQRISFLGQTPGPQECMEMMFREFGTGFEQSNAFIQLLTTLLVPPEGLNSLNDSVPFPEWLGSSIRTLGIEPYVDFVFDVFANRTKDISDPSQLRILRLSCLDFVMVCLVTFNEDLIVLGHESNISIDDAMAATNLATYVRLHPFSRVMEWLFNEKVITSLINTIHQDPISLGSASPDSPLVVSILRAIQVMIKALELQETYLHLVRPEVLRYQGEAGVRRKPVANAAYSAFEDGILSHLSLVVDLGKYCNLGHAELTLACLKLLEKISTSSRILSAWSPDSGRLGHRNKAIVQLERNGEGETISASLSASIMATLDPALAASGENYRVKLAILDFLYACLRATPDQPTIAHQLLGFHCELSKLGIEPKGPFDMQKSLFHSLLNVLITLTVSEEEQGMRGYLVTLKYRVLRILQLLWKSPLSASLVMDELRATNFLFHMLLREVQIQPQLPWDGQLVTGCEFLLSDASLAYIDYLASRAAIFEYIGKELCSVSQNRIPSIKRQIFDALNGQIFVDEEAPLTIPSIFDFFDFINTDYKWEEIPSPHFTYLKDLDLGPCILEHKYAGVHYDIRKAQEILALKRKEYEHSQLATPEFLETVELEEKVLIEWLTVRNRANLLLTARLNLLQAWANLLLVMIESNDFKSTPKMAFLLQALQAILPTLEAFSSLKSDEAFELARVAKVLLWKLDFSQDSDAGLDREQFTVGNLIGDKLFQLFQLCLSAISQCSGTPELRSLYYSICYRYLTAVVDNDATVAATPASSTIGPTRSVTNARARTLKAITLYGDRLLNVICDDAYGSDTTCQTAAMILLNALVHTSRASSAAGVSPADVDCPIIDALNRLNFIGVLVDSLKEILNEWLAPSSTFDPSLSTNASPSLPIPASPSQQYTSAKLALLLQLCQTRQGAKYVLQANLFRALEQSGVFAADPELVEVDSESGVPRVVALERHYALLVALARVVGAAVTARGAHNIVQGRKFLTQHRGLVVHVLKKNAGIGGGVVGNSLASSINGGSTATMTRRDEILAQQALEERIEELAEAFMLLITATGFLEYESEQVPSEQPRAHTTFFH
Chaetomium thermophilum Nup188, full-length, sequence (G0SFH5 whole entry): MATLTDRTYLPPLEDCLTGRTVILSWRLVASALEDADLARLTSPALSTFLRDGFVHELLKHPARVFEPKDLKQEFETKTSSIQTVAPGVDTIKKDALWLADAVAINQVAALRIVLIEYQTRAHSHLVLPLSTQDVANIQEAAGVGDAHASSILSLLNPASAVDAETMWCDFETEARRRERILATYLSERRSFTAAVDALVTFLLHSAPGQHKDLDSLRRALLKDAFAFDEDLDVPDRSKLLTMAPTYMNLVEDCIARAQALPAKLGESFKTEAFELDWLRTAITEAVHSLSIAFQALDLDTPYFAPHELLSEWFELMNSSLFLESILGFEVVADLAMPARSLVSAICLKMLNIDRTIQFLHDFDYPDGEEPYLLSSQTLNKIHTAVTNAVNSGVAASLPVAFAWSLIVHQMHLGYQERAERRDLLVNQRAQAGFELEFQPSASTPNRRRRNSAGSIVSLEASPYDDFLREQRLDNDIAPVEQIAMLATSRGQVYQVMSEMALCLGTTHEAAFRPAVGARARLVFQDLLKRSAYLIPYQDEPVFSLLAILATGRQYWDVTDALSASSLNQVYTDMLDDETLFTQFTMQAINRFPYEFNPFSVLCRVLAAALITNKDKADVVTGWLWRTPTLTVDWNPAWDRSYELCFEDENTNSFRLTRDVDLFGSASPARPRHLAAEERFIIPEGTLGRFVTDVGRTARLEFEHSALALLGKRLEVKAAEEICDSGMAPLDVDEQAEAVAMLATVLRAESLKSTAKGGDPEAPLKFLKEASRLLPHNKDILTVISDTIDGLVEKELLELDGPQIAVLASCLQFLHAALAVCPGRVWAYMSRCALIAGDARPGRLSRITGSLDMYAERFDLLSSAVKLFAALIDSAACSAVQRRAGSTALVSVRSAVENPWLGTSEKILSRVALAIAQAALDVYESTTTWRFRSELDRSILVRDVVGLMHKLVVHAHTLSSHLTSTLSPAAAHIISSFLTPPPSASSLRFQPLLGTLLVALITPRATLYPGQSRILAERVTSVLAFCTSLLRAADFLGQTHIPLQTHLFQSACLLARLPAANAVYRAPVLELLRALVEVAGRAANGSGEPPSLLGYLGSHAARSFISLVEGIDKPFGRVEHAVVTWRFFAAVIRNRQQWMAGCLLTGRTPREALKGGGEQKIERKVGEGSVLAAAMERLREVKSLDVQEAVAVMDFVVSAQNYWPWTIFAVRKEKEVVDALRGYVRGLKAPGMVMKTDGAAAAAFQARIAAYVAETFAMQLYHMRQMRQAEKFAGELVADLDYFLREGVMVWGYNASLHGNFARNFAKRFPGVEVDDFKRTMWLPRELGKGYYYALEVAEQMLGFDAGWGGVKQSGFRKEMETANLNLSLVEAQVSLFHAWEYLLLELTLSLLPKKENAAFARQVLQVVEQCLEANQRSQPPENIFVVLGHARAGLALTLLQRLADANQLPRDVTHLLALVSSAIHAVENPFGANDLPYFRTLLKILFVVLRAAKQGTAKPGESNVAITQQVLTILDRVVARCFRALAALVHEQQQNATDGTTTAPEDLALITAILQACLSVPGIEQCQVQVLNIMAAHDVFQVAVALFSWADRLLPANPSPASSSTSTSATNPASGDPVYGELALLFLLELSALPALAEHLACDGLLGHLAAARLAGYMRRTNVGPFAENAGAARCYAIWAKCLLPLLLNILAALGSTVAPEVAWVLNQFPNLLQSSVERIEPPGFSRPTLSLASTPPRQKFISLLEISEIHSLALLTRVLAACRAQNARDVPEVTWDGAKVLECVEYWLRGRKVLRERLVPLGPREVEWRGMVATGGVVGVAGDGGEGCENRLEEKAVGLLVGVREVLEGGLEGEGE

B1: SUMO-NUP53^N (residues 1–169) (domain or fragment, human, UniProt Q8NFH5 1-169, looked up)
chain: MAAFAVEPQGPALGSEPMMLGSPTSPKPGVNAQFLPGFLMGDLPAPVTPQPRSISGPSVGVMEMRSPLLAGGSPPQPVVPAHKDKSGAPPVRSIYDDISSPGLGSTPLTSRRQPNISVMQSPLVGVTSTPGTGQSMFSPASIGQPRKTTLSPAQLDPFYTQGDSLTSED
Consider B1, for which the binding result with human NUP93^SOL was “binds”.

B2: Nic96^187–301 (domain or fragment, Chaetomium thermophilum, UniProt G0S024 187-301, looked up)
chain: EPGKAHYFLAASGVDPGAAVRDLGALGLQAKTERTAASVGPAAGPSGVSTTGFGTGLGEVDVDTYLSNLQTKTTLSMIADGLERSARDFDAFLEENVTLEWEAQRKRIYQHFGIK
B2: the figures for the Kd in assay [1] and in assay [2] were roughly 90 nM and roughly 75 nM, respectively.

B3: human NUP53^R2 (residues 84–150) (peptide, UniProt Q8NFH5 84-150, looked up)
chain: DKSGAPPVRSIYDDISSPGLGSTPLTSRRQPNISVMQSPLVGVTSTPGTGQSMFSPASIGQPRKTTL
In the case of B3, in the assay with human NUP93^SOL, the binding result is listed as “binds”.

B4: Nic96^R2 (residues 240–301) (peptide, UniProt G0S024 240-301, looked up)
chain: GTGLGEVDVDTYLSNLQTKTTLSMIADGLERSARDFDAFLEENVTLEWEAQRKRIYQHFGIK
With B4, the Kd (in general, the constant that tells how readily two partners part at equilibrium) was roughly 90 nM in assay [1] and roughly 75 nM in assay [2].

B5: Nup145N^R1 (residues 616–683) (peptide, UniProt G0SAK3 616-683, looked up)
chain: ATPLSGKAKVKSRSILPMYKLSPANASRLVTTPQKRAYGFSFSAYGSPTSPSSSASSTPGAFGQSILS
The molecule B5 displayed a Kd in assay [2] of roughly 1600 nM.

B6: Chaetomium thermophilum Nup145N (natural protein, UniProt G0SAK3 1-993, looked up)
chain: MSFGFGSGGFGQNNNSSTFGGFGSTPTTNTGFGSTGTTAFGSTSNTTGGGLFGGGGGGFGSGNTFGSGFGSKPAFGTPATTSSTSLFGSTTTTAGGTGFGSGGFGSTNTSSPFGGGGTSLFGNKTTTGFGSGTSTFGSNTGGGLFGGGSTTTGFGATNNPGIGTNVGDPPGTAVVPFSPTVEKEVNNPSQSNSYQNILFMDAYKKWSAEELRLADYNQGRKTAAPGGTGAFGSSGFGGFGTTSNTGGFGSNTGGGLFGNTQQNTGGFGTTNTTGSAFGSGGGLFGNKPATGGLFGTSSSQPAQSGGLFGSGTASTFGSSNTGTTSTFGSNNNTGGGLFGSNNTSSKPAFSFGTSNTSTPGFGTATTGSGFGTGTTTNTGGGLFGNTAQNTNTGGGLFGNQQQSGSAFGSGTGFGQQNQSTGTSLFGNTQQKPGGLFGSTTTNTSGGLFGSTNTGTSTFGQTPATQNTGGGLFGSKPAGTGGLFGSTATNQPASTGGLFGNLNTNAQTQQPATGGLFGNLGQNNQAKPSLFGTSTTTGGGLFGNTNAQQQTGSLFGTSTAQQQPQTGLGASLFGSSQQQQQQPQTFSTSITDISAYGATTLFSGLPDDKIQNPGPLATPLSGKAKVKSRSILPMYKLSPANASRLVTTPQKRAYGFSFSAYGSPTSPSSSASSTPGAFGQSILSSSINRGLNKSISASNLRRSLNVEDSILQPGAFSANSSMRLLGGPGSHKKLVINKDMRTDLFSPPNKDKQPQEDGTAARKTVTKRVSFDTSNVETPEKTIESSIPATDDSGYLKPDARSTANGTNGANGAKSSPVAAASPPEMEQVKGKELAVVHEEESPAPAQTDKPRGSQIEPGAYWMSPTADDIRAMNRMQRQRVVGFTVGRENVGSVQFKVPVDLSNINLDDLFGTIVILEPRSATVYPNAAKKPPMGKGLNVPALISLEHSWPRGGPTIKGRRLERHIERLKSIPDTTFESYDPETGVWAFSVEHF
With B6, the Kd in assay [2] is roughly 825 nM.
